Experimental data as given in article PMC9057587 (The Journal of Clinical Investigation, 2022).

Target: T1, human Tim-3 (T cell immunoglobulin mucin domain-containing protein 3) (Homo sapiens, UniProt Q8TDQ0)
T1 construct: human Tim-3 (HAVCR2), injected as the SPR analyte; I surmise the monomeric IgV domain; also called hTim3; hTim-3
Assay: SPR; Biacore T200, 37°C; antibody captured on a CM4 chip with preimmobilized anti-human IgG Fc pAb; human Tim-3 injected as analyte, single-cycle kinetics, 5-membered 5-fold dilution series, 1 uM top; 10 mM HEPES, 150 mM NaCl, 0.05% Tween 20, pH 7.4, 1 g/L BSA; 1:1 Langmuir model with mass transport
Settings: both partners purified

T1 sequence (Q8TDQ0 22-301): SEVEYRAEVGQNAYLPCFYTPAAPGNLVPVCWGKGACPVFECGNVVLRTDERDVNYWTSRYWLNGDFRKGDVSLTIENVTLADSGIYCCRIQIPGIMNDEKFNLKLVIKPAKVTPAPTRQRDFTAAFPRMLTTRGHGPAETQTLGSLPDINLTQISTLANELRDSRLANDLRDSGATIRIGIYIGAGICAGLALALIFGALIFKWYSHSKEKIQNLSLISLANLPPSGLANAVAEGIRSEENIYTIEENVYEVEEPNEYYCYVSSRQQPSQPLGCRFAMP

- Kd: 1.8 nM
- koff: 0.0046 s⁻¹
- kon: 2.6e+06 M⁻¹ s⁻¹
B1: aTim-3.18 monoclonal antibody (antibody, V domains shown)
VH: QLQLQESGPGLVKPSETLSLTCTVSGGSISSRSYYWGWIRQPPGKGLEWIGSIYYSGFTYYQPSLKSRVTISVDTSKNQFSLKLSSVTAADTAVYYCATGGPYGDYAHWFEPWGQGTLVTVSS
VL: not shown
notes: Whole mAb from Bristol Myers Squibb, captured in SPR through an anti-human IgG Fc antibody; The isotype-matched control was an IgG4, so I surmise the mAb is a human IgG4; source: Expi293, transient transfection, purified (Protein A MabSelect SuRe)
